These results are taken from the DeepSol protein solubility set.

A short description of this data set: soluble on expression in E. coli; label from the status in PepcDB or PDB records.
Regarding “MDESNVSQELLNSNRTEIARCVLLKDLVVMYGGYEVYANHVDLLMCFHQLMIVLAAPPIKPMQKEPGTLLPPRAVVYKLPAIKGSMKDAFSAHKLLKKSYAKPIVDISSTSGDSDPEWWSDRELTPDLNLKRELLLKKARFSRKTFDKRSSYIAHFKKSHLENYLNSDSDTVSNEKPKTLAQLKNFSKSNLVEYHPSMYRDVGVVIIFFSIYYYDLNSFKVNSEIEKQDKIFQEYKKWIFQSVQERRFVSKECTEPKVLSQLHVHVHQN”, the “soluble on expression in E. coli” value was “not soluble”.
Turning to “MDESTCPIIEAIREVGKENDLLVIRLLSDNDLGFNQILKLAGKMSPKTLSVTLKRLTEKKIIYRDVVSTQPFRVKYRLTEKGQELRNVLNDLGQWGERWILNNESQSAVNTENYRLKS”, the “soluble on expression in E. coli” value is “not soluble”.
Then “MDFAFEKVARDWFVRWSKGRSEKYAGQVMRNFERWVFPAIGNLDIRQVRTADVVGCLRVMEARGIVDTLRKTKNSLKMVFAFAVGSGMMEINPVAQIGSGVFERLEHHHHHH”, with “not soluble”; and “MDFASSDGGGRTTTSAKIVVAGGFGVGKTTFVGAVSEINPLRTEAVMTSASAGIDDLTHTGDKTTTTVAMDFGRITLDQDLILYLFGTPGQDRFWFMWDDLVRGAIGAVVLVDTRRLADCFPAVDYFENSGLPFVIALNGFDGHQPYNPEEVREALQIGPDAPIITTDARHRADAKSALITLVEHALMARLRLEHHHHHH”, with “not soluble”.
Regarding “MDFHIDEKYKGMGKGRTFLIKTYGCQMNAHDTEVMAGILNALGYSATSDINEADVILINTCAIRENAENKVFSEIGNLKHLKKERPDCLIGVCGCMSQEESVVNKILKSYQNVDMVFGLEHHHHHH”, the “soluble on expression in E. coli” value was “not soluble”.
For “MDFKSSDAIRGPRTEDHLPHTAQAAVKIVIVGGFGVGKTTMVGSVSEIRPLTTEETMTQMGIGVDDNYGSESKTATTVAMDFGRISITEQLVLYLFGTPGQERFWFLWNGLFEGALGAVVLIDTRRLEVSFDVIGRLEERGVPFVIAVNDFPDAPRYPVEDLRGALDLTEDIPIVKCDARRRASSREVLMTLMHFLHSLAVSKTSVLEHHHHHH”, the “soluble on expression in E. coli” value is on record as “not soluble”.
Take “MDFKYDVIVIGAGHAGCEAAAAAANLGSKTCLITMDMNKIGQMSCNPAVGGIAKGQIVREIDALGGQMGLVTDETAIQFRILNRSKGPAMWSPRAQCDRAKFIWSWREKLENTPNLHIWQDTVCELLVENGEVVGLVTLWGVTFKAKCIVLTAGTFLNGLMHVGRHQLPGGRMAEPASYQLTESIARHGIAYGRMKTGTPVRIDARSIHFDLMDTQDGECDFHKFSFMNTSTRHLKQLQCWTCYTNEEVHRILREGLPDSPLFNGQIQSIGPRYCPSIETKIVTFPDKEQHQLFLEPEGETTQELYLNGFSSSLPMDIQIAALKKVPAFKDIVIYRPGYAIEYDYFDPTQLKHSLESKIIKNLFFAGQVNGTTGYEEAGGQGLIAGINAHINCHGGEAFTLARDEAYIGVLIDDLVTKGVDEPYRMFTSRAEYRILLRMDDADMRLTERAYHLGLAREDRYQLMKTKKEALEQIVNFAKNYSMKPALINDALEKLGTTPLRQGCKLIEILNRPQITIENIAEHVPAFQRELEKATAADSDRKEEILEAAEILIKYQGYIDRERMIAEKLARLESIKIKGKFDYASIQSLSTEARQKLVKIDPETIAQASRIPGVSPSDINVLLVLSGR”: the “soluble on expression in E. coli” value is “not soluble”.
With “MDFLARATAIVGNTMVLMRRFGSPGTQAIGQSPAIPEAQKQGIMTLKMPAAKGWAPGHLPTPAPGLKVNAFARDLEHPRWIEVLPSGDVLVAEARQLPTPPKTLLDRAAQATMRRIRALGDSPNRITLLRDPDGRGEAQERETFLENQSQPFGMALVGDTFYVGNTDGIMAFPYRPGATRLEGPGRRLTTFKPGGHWTRSLIVSPDGRRIYAGVGSLSNIGDDGMEAEEGRAAIWELDLASGQARIYASGLRNPVGLAWEPTTRVLWTVVNERDGLGDETPPDYLTSVEEDGFYGWPYCYWNRIVDDRVPQDPAMVARAITPDYALGGHTASLGLCWVPAGTLPGFGDGMAIGQHGSWNRSKLSGYRLIFVPFANGRPSGPPRDILTGFLSDDEKLAYGRPVGVAVGPDRRSLLLADDVGDVIWRVTGALEHHHHHH”, the “soluble on expression in E. coli” value is given as “not soluble”.
Then “MDFQIEEDRLGMRIQSETIELTKDEKGVVGISIGGGGPYCPCVYVVQVFDKSPAFKDGRIRCGDEIVAINGITVKGERKSAVAQLIQVSLNPVKITINKLEEANTKGKTLDILIKKVKHKVVEFVDQDSADALGLSRAILTNDPLAEKEKILEENAEFYRHLVAYFGDMFQYQQKISECQKEFGSIFCDLAAHEKQQTANEAFSSFGDKHRMIAKKQSESAVPLQKMVSDLQVYIDHVVPDTRLTIKKYLDVKYEYLSYCLKLKEMDDEEVEFVAIQEPLYRVETGNYEYRVMLRCRQECRARFMKMRDDVMVKIELLDQKHVRDIAQHLAIFAKTMAKCQQECAEILKERIDVPIEIDLEQLNLNMNTSDGKANGEEEMGQDAIVLNDNPLEGDLIDVNDIGSSTEFNEPRISLRRDSQNDTSQPLLGAPDSPLEELSLIDIS”, with “not soluble”.
In the case of “MDFYYPNLNNDMWRIVGLLFFGDKDHFLNDTRKAFCREQIIDFLNEKGIALFDTASSIRRLQDNASDKFLEVVQPTDIAALLRQLPECRAIVTTGQKATDTLRAQLEVEEPKVGDYAEFVFEGRAMRLYRMPSSSRAYPLALDKKAAAYRIMYQDLQMVILEHHHHHH” it was “soluble”; in that of “MDGDQVKGILKSGNNSAQFSLKAAKFDEVNILATFHPAGKDYGHMIIDEPKTPFVFEEDLPKELDTNALIEKLRHTSKSEMPAFGIEGDSEESSADEDFPESVEEKVRRMEFERRRKVHYKEFYSVPLARRLIADEFAELTSSEFNIHCEGGMESCEACSENNQLDGEASNLTQTKYSYSESQSEYRISDHSEPEPGFSPSHHCYQKLKAELFSKAEPEELASLTHLHRMPSVNDDEPSREPRVPYPSVVPTQTQNLHEHKSSLKITSEKPTPARICKSNPDNRPGTSKKETRLEHHHHHH”, “not soluble”; in that of “MDHDKSKRLPPSYYTLLEASQEKETTSTKILAQYLDRSPATVRTQFQRIMEFLDVSSRYGALREAEKRGLIRRNKRATSAHHQENRSSL”, “not soluble”.
Then “MDHTVLIALLLAFCSTASAVDSEGTDFVFAFVRNANPNITNQILSATVLNQNAQDCKFTLTYRPDYRKATSPENITVTVSANSAVEVPVLSWYGWNYANENLQDDVFLTLTGFSTCPVTVLANNYDNVTGQGDTYMVLPLTWGSTSLTFSLPPAVLSTDQQYEQIYVLPTTPGVTKVSVFEIGNAASVYTFNATFGNAPAAYIGARTPDARPRTYHVMSDKNVLVVAGVTCAGADANSCDHVAYMPHPPPSSDCYTYDYYDDDHVSYLPTTSQFFTDIPGTCSVGQNITRTLNDGVSYTITIKPQMESPLWSIKTTNANQLAVAFHNGGSNIHIARYYDGTKFNSRGAFAATSPSMTQFHNLNTPFFTRNANDTIEIYCTVLSCSSITIDGVKIQITDTKVVQKVDDISYYIFVNTIANPGYHQISLKQQGSYAFFVYGKNKLYSYGYEGGANKPTVVLAPPTTPGPTFYPVTTVSTMSPPTTVTVPTTPTPVPTTTNTPPANPTTATPTTVGTMTPSTGTTTVPVPTTTGSPTTQTTAPVTKPTVPSSTTQTAPPVTTPTSQPPVTTTSLLTTLTTPTVPVTTTVVPSSATVPTTPPTTVTVAATTTSKAPVVTTSPTLAPTSPTKLPTSPPSTVGTSPTAPANLTTPTTAPVNPTSSTTAPTAPVNPTSPTTAPTVPPVTTTTPTTTTSTTTTTTTTTTTTQTTPTTPVVTTPSTITPTTRPVTQPASQPATQPATTPTTTIPTTTQFSSAVSVALPVVLTMFFALF”, with “not soluble”.
For the sequence “MDIGLEVENIPSVNITSLKEAPIHISSKIQPHGILLVLAEPDLKILQVTNNTLNVFGRSAEDMVQKRLVDLLDAYQLDRIKSGLSEQNLEFINPTKILVRNKGIA”, the “soluble on expression in E. coli” value was “not soluble”.
For the sequence “MDIHSHQQALDAYENVLEHLREKHIRITETRKAIISYMIQSTEHPSADKIYRDLQPNFPNMSLATVYNNLKVLVDEGFVSELKISNDLTTYYDFMGHQHVNVVCEICGKIADFMDVDVMDIAKEAHEQTGYKVTRIPVIAYGICPDCQAKDQPDF”, the “soluble on expression in E. coli” value is “not soluble”.
For the sequence “MDIPQDSYDLVVVGGGTSGVFAAISAARRGLRVALVEASGMLGGTLTQVTLGGICGAWTGTAHTQVVHGLFDEFVHAMRKAQACDGLYSYGHVTALPYEPVKVRYLLDQLLPPNVTAFFHSRLFAVDMEGERIARVHLAGVEGPFSLAARAYVDATGNASLVGLCATPLRRGENGTVQAASSMFRVIGADVDPRVRDVRTEIRLAIEKHNASGQAEAFKRSAVAVYVHPDQRLLHFNATRVYFESTADDALAAALDMSRVETEARKESFRLVELLKREVDGFANIEIVDLGSSVGVRDSRNIVNDHPLTEAMVRDGDKPANSVAYSAWPIEFHGSNTQTHWEPLEGDRYYGIPYESCLPQGIQNALVIGRAISSTPLAQASCRVTAPCIQMGESAGIAAHELVASSSRTAFSELASMKFILEHHHHHH”, the “soluble on expression in E. coli” value was “soluble”.
Consider “MDIQLVADGLQFPEGPIAMADGSVILTEIQGQRLTRVWPDGRKETVAETGGGPNGAAIGPDGAIYVTNNGGSFQFFEANGLNIPGPTPPTHTGGAIQRVDLKTGAITTLYTECDGKPLVGPNDLVFDKQGGFWFTDHGCSTPDGRKYGALYYALPDGSKITRWRDHFVSPNGVGLSPDEKTVYMADTMLGRLWSFDVASPGVLADAVPLLPGNVVCNLPGYQLLDSLAVEADGKVCVATIINGGITAFAPDGSTEHYAFPDVIVTNICFGGADMRDAWITASGTGKLYKARWPRPGLKLNFNGLEHHHHHH”, for which the “soluble on expression in E. coli” value was “soluble”.
In the case of “MDIRELVHLGRYAVWNAFEGKEIKVPEALKEKYSRNMGVFTTLKTYPEHNLRGCIGVPLPVYPLWYATVYSSLQAAFQDPRFYPLKKEEFDKVLWEITLLTPPEELKVPKEELPEQIEIGKHGLIIEKGEQKGLLLPQVPVEYGWSPVEFLEYTCLKAGLPKDCWKDKETKVYVFSGEVYQEKEPFGEVERVNLKLEHHHHHH”, the “soluble on expression in E. coli” value is listed as “soluble”.
Consider “MDKESVDTLFGMGLTAYQAKDYTKAIHALEHLREHDPSYTTLYSYLAKSYEENGEPEKAIAVLRDGLTQDEFNKEMFLEAGKLAVTLRLPEEAEEFYRQAIVLDEEFSEAIMQLNKLLLAKENYEGVIELVEGLGEEVISEPQIFWDVSVAYQETEQYNKAKANYELAYPHFTNNPTFLKEYGLFLREEGEHAKSQEVLRSYLELEPEDTEILSLFDLEHHHHHH”, for which the “soluble on expression in E. coli” value is “soluble”.
With “MDKPVDKPAKGKRPAAAGRGSKPRSASAERVRRHREKMKAMGLKPVTIWVPEDYNSPEYKAEIRRECELINADPESEIVLEGMWELADFGDWKA”, the “soluble on expression in E. coli” value is listed as “not soluble”.
For “MDKSDMQRTVDSLRSQLNIERTPITVSAAELRRFTESQEDPLVNPIDKKVNPWAEKSKCSML”, the “soluble on expression in E. coli” value is listed as “not soluble”.
For the sequence “MDLASLRAQQIELASSVICEDRLDKDPPDLIAGADVGFEQGGEVTRAAMVLLKYPSLELVEYKVARIATTMPYIPGFLSFREYPALLAAWEMLSQKPDLVFVDGHGISHPRRLGVASHFGLLVDVPTIGVAKKRLCGKFEPLSSKPGALAPLMDKGEQLAWVWRSKARCNPLFIATGHRVSVDSALAWVQRCMKGYRLPEPTRWADAVASERPAFVRYTANQPLEHHHHHH”, the “soluble on expression in E. coli” value is on record as “not soluble”.
In the case of “MDLQHWQAQFENWLKNHHQHQDAAHDVCHFRRVWATAQKLAADDDVDMLVILTACYFHDIVSLAKNHPQRQRSSILAAEETRRLLREEFEQFPAEKIEAVCHAIAAHSFSAQIAPLTTEAKIVQDADRLEALGAIGLARVFAVSGALGVALFDGEDPFAQHRPLDDKRYALDHFQTKLLKLPQTMQTARGKQLAQHNAHFLVEFMAKLSAELAGENEGVDHKVIDAFSSAGLEHHHHHH” it was “soluble”.
